In experiment [1] the target is human wild type PCSK9-V5 (prosegment≡PCSK9 complex) in conditioned medium (human) (UniProt Q8NBP7).
Experiment [2] has the same target. The source holds these as a separate data set.
Experiment [3] concerns the target PCSK9 D374Y-V5 (gain-of-function natural mutant) (human) (UniProt Q8NBP7).
For experiment [4], the target named is PCSK9 Δ33-58 D374Y-V5 (human) (UniProt Q8NBP7).
The target of experiment [5] is PCSK9 Δ33-58-V5 (lacking the acidic N-terminal region of the prosegment) (human) (UniProt Q8NBP7).
In experiment [6] the target is human wild type PCSK9-V5 (prosegment≡PCSK9 complex) in conditioned medium (human) (UniProt Q8NBP7). The source holds these as a separate data set.

Substance “Fcpro (Fc of human IgG1, hinge of human IgG1 and PCSK9 prosegment aa 31-152) (from UniProt Q8NBP7 31-152) (Fc fusion)” returned a reduction by Fcpro (3 µg/ml, pre-incubated with 1 µg/ml PCSK9, both in HEK293 conditioned media) of the LDLR degradation induced by extracellular PCSK9 in HepG2/shPCSK9 cells, 4 h at 37°C in experiment [1] of 60%.

As to “Fcpro expressed in HepG2/shPCSK9 cells (from UniProt Q8NBP7 31-152) (Fc fusion)”, the reversal by co-expressed Fcpro (DNA ratio PCSK9:Fcpro 1:3; ratios up to 1:9 gave no more) of the ∼44% LDLR degradation induced by PCSK9; total LDLR by Western blot of cell lysates in experiment [2] stood at 75%. The substance further yielded a total LDLR level (normalised to β-actin) in HepG2/shPCSK9 cells co-expressing Fcpro and PCSK9 D374Y, against 0.1 with D374Y alone (relative LDLR level) in experiment [3] of 0.44. The substance also displayed a total LDLR level (normalised to β-actin) in HepG2/shPCSK9 cells co-expressing Fcpro and PCSK9 Δ33-58 D374Y, against 0.08 with Δ33-58 D374Y alone (relative LDLR level) in experiment [4] of 0.31. The substance further gave a fold increase of total LDLR on co-expression of Fcpro with PCSK9 Δ33-58 in HepG2/shPCSK9 cells in experiment [5] of 1.4 fold. In addition, in experiment [6], the fold increase of total LDLR on co-expression of Fcpro with wild type PCSK9 in HepG2/shPCSK9 cells came to 1.4 fold.

For the origin of these results see article PMC3741231.
